Values of other authors as cited in paper PMC5035964.

How the values were obtained:
Nectin-4 (Homo sapiens) = Nectin-4 (Homo sapiens) (UniProt Q96NY8)
SLAMF1 (Homo sapiens) = SLAMF1 (Homo sapiens) (UniProt Q13291)
CD46 (Homo sapiens) = CD46 (Homo sapiens) (UniProt P15529)
UniProt P15529, sequence (P15529 35-392): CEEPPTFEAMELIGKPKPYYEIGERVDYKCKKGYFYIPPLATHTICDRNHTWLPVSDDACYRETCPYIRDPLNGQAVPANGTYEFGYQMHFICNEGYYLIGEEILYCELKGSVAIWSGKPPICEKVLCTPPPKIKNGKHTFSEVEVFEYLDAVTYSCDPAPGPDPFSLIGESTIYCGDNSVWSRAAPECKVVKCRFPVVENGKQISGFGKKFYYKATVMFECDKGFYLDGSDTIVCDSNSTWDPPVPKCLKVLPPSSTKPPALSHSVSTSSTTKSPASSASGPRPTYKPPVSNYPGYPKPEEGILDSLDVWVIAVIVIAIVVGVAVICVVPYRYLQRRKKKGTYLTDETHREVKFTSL

UniProt Q96NY8, sequence (Q96NY8 32-510): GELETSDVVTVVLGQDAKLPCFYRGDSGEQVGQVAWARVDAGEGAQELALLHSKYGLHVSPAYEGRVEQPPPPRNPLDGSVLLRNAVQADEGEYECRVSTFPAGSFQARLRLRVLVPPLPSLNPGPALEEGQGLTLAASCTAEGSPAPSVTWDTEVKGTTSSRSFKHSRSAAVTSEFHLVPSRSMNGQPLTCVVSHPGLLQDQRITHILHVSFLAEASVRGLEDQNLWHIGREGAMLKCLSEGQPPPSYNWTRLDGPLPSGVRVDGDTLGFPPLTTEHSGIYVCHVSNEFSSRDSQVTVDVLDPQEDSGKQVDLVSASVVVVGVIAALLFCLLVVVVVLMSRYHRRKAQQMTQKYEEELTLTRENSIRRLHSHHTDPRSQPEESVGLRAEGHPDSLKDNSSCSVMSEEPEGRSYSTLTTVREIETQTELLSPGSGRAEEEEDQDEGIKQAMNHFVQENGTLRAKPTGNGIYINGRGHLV
UniProt Q13291, sequence (Q13291 21-335): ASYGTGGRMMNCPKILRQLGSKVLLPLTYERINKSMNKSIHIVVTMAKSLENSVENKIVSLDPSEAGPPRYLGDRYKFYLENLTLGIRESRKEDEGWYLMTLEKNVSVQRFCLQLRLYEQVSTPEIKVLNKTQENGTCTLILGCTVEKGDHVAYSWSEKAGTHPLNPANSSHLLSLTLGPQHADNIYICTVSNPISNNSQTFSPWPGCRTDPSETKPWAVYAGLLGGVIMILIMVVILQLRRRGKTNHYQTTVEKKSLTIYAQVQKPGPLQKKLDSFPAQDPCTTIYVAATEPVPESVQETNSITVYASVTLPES

| Substance | Kd (Nectin-4 (Homo sapiens)) | Kd (SLAMF1 (Homo sapiens)) | Kd (CD46 (Homo sapiens)) |
| --- | --- | --- | --- |
| Measles virus hemagglutinin (H) (from UniProt P08362) | 20 nM | 80 nM |  |
| Measles virus hemagglutinin (H), Edmonston (from UniProt P08362) |  |  | 79 nM |
